Source: US20160311925A1 (UNIVERSITY OF ROCHESTER, published 2016)

B1: anti-Amd mAb Amd2.2 (antibody, V domains shown)
VH: ESGPELVKPGASVKISCKASGYTFTDYNMHWVRQSHGKSLEWIGYIYPYNGGTGYNQKFKSKATLTVDNSSSTAYMELRSLTSEDSAVYYCAREDGYYGYFDYWGQGTTLTGSS
VL: EIVLTQSPAITAASLGQKVTITCSASSSVNYMHWYQQKSGTSPKPWIYEISKLASGVPARFSGSGSGTSYSLTISSMEAEDAAIYYCQQWNYPLITFGAGTKLELK
notes: Mouse hybridoma mAb (Fusion #2), IgG1; The VH is incomplete at the N-terminus
B2: anti-Amd mAb Amd1.1 (antibody, IgG1, V domains shown)
VH: QQSGAELVKPGASVKLSCTASGFNIKDTYIHWVKQRPEQGLEWIGRIDPANGITNYDPKFQGRATITADTSSNIAYLQLTSLTSEGTAVYYCARGGYLSPYAMDYWGQGTSVTVSS
VL: ENVLTQSPAIMSASLGEKVTMTCRASSSVNYMFWFQQKSDASPKLWIYYTSNLAPGVPARFSGSGSGNSYSLTISSMEGEDAATYYCQEFTSFPYTFG
B3: anti-Amd mAb Amd1.9 (antibody, V domains shown)
VH: VESGGGLVKPGGSLKLSCAASGFTFSSYAMSWVRQTPKKSLEWVASITSGGSAYYPDSVKGRFTISRDNARNILNLQMSSLRSEDTAMYYCARDDGYFDYWGQGTTLTVSS
VL: DIQMTQSPASLSVSVGETVTITCRTSENIFSNFAWYQQQPGKSPQLLVYGATNLADGVPSRFSGSGSGTQYSLKITSLQSEDFGSYYCQHFWGSPWTF
notes: Mouse hybridoma mAb (Fusion #1), IgG1; The variable domains are incomplete at the termini
B4: anti-Amd mAb Amd1.6 (antibody, IgG1, V domains shown)
VH: QSGTVLARPGTSVKMSCKASGYSFTNYWMHWVRQRPGQGLEWIGSIYPGNSDTTYNQKFKDKAKLTAVTSASTAYMELSSLTNEDSAVYYCTGDDYSRFSYWGQGTLVTVSA
VL: SIVMTQTPKFLLVSAGDRLTITCKASQSVSNDVAWYQQKPGQSPKLLIYYTSNRYTGVPDRFTGSGYGTDFTFTISTVQAEDLAVYFCQQDYNSPWTFGGGTK
notes: Mouse hybridoma mAb (Fusion #1), IgG1; The variable domains are incomplete at the termini; also called mAb1.6
B5: anti-Amd mAb Amd1.11 (antibody, V domains shown)
VH: QIQLVQSGPELKKPGETVKISCKASGYTFTNYGMNWVKQAPGKGLEWMGWINTYTGEPTYADDFKGRFAFSLETSASTAYLLINNLKNEDTATYFCARRDGYFDAMDYWGQGTSVTVSS
VL: DILLTQSPAILSVSPGERVSFSCRASQSIGTSIHWYQQRTNGSPRLLIKYASESISGIPSRFSGSGSGTDFTLSINSVESEDIADYYCQQSNSWPALTFG
notes: Mouse hybridoma mAb (Fusion #1), IgG1; The VL is incomplete at the C-terminus

Columns and labels:
His-AmdR1R2-B [1] = target: T1, His-AmdR1R2-B (Staphylococcus aureus, UniProt Q5HH31 198-775); experiment: SPR, Biacore T-200; immobilized (captured) mAb, soluble His-AmdR1R2-B
T1 construct: also called rAmd; soluble Amd; not shown: BirA biotinylation site
T1 sequence: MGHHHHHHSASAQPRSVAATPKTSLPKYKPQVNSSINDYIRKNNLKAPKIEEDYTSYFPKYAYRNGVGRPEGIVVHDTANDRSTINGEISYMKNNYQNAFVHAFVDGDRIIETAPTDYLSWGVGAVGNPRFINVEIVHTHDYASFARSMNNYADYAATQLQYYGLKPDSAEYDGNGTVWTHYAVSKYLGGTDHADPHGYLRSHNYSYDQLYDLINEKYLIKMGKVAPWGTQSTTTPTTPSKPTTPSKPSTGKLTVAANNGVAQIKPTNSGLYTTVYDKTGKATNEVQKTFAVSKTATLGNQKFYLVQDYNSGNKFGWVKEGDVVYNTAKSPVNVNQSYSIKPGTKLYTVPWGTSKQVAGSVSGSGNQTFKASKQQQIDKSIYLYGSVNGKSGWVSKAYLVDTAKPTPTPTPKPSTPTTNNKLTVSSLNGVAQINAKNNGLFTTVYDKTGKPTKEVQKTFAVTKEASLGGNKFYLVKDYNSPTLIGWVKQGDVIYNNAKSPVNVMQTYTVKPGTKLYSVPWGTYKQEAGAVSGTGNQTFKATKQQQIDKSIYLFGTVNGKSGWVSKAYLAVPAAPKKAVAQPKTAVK

His-AmdR1R2-B [2] = target: T1, His-AmdR1R2-B; experiment: cell-based or functional assay
His-AmdR1R2-B [3] = target: T1, His-AmdR1R2-B; experiment: SPR (Biacore T-200): Ab 1.6 (20nM) captured on immobilized rabbit anti-mouse Fc (RamFc), soluble Amd flowed at 1.56 to 25 nM
Method: (§1) The capture (association, t=0 to 120 sec) and release (dissociation, t=120 to 420 sec) phases are presented. […] Measurements were made according the manufacturer's instructions and kinetic data were analyzed using biomolecular interaction analysis (BIA) evaluation software (version 3.1) from Biacore AB.
(§2) The affinity of immobilized anti-Amd mAbs for soluble His-AmdR1R2-B was measured using surface plasmon resonance technology on a Biacore T-200.

His-AmdR1R2-B [4] = target: T1, His-AmdR1R2-B; experiment: SPR, Biacore T-200; immobilized (captured) mAb, soluble His-AmdR1R2-B; average
Method: as §1, §2

His-AmdR1R2-B [5] = target: T1, His-AmdR1R2-B; experiment: SPR, Biacore T-200; mAb captured by rabbit anti-mouse Fc IgG on a CM-5 chip, Amd at 1.56 to 25 nM; the single run shown in FIG. 4
Method: as §1, §2

| Binder | Kd (His-AmdR1R2-B [1]) [nM] | other results |
| --- | --- | --- |
| B1 | 1.4 | – |
| B2 | 2.5 | – |
| B3 | 2.6 | – |
| B4 | – | IC50 (read off the curve) (His-AmdR1R2-B [2]): ~2 µg/mL; Kd (His-AmdR1R2-B [3]): 1.03 nM; Kd (His-AmdR1R2-B [4]): 2.1 nM; Kd (His-AmdR1R2-B [5]): ~1 nM |
| B5 | 3.4 | – |
